Results on three substances are retold here after publication PMC7773321.

The target in assay [1] is Factor Xa.
Assay [2] deals with Neutrophil elastase (UniProt P08246).
UniProt P08246, sequence (P08246 30-267): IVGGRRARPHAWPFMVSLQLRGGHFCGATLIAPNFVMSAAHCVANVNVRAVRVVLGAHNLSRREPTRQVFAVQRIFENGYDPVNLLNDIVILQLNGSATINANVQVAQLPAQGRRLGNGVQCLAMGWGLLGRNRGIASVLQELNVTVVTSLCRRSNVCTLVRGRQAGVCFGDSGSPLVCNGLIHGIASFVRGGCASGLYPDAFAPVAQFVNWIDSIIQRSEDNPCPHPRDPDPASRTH

As for “Ecotin from Campylobacter rectus, C-terminal His6 fusion (natural protein)”, the cleavage of the FRET peptide Dabcyl-…-Edans by factor Xa with 15 nM ecotin, relative fluorescence units after 60 min (0-60 min followed; 350 RFU without ecotin) in assay [1] was 48 RFU. In addition, in assay [2], the IC50 of inhibition of NE activity (fluorometric NE activity assay, 25 nM NE, 0-50 nM ecotin, 37°C) stood at 4.49 nM.
On the same counts, the results for “Ecotin from Campylobacter showae, C-terminal His6 fusion (natural protein)” are 17.7 RFU and 4.78 nM.
Consider “Ecotin from E. coli, C-terminal His6 fusion (from UniProt P23827 21-162) (natural protein)”, for which, in assay [1], the cleavage of the FRET peptide Dabcyl-…-Edans by factor Xa with 15 nM ecotin, relative fluorescence units after 60 min (0-60 min followed; 350 RFU without ecotin) was 21.3 RFU. In assay [2], this substance registered an IC50 of inhibition of NE activity (fluorometric NE activity assay, 25 nM NE, 0-50 nM ecotin, 37°C) of 4.64 nM.
